Source: US12723255B2, “Herbicide tolerance genes and methods of use thereof” (priority 2014, dated 2026)

Test system: transgenic maize plants
Assay: R1 green house quizalofop-P spray test
Assay type: in vivo
Settings: R1 maize with CTP; quizalofop-P 1× at V2; eleven days after treatment
Excerpt: Plant transformation vectors were constructed each comprising a recombinant DNA molecule encoding one of three engineered proteins with the protein-coding sequence optimized for monocot expression, MON-HT51 (SEQ ID NO:3), MON-HT52 (SEQ ID NO:6), and MON-HT55 (SEQ ID NO:13). The vectors were created using different combinations of promoter, leader, intron, and 3′UTR and with and without a CTP operably linked to the protein-coding sequence. Also included in the vectors was a second DNA cassette comprising a cp4-EPSPS coding sequence to be used in transgenic plants for glyphosate tolerance. Immature maize (LH244) embryos were transformed with these vectors using Agrobacterium tumifaciens and standard methods known in the art. Regenerated R0 transgenic plantlets were grown in the green house and sprayed at approximately V2-V4 growth stage with 0.04 or 0.08 lb ai/acre quizalofop-P (AssureTM II, E.I. DuPont), representing 0.5× and 1× rates, respectively. Leaf samples were used to identify transgenic plants with a single copy of the transgenic DNA insert (that is, single event plants). […]
R1 plants expressing MON-HT55 with and without an operably linked CTP were grown in the green house and quizalofop-P herbicide was applied at the V2 growth stage at a rate of 0.08Ib ac/acre (1×). Plants were evaluated for injury eleven days after treatment.

B1: MON-HT55: engineered oxygenase protein, amino acid sequence SEQ ID NO:11 (protein)
chain: MHAALSPLSQRFERIAVQPLTGVLGAEITGVDLREPLDDSTWNEILDAFHTYQVIYFPGQAITNEQHIAFSRRFGPVDPVPLLKSIEGYPEVQMIRREANESGRVIGENWHTDSTFLDAPPAAVVMYAKEIPPYGGDTLFTSMYTAWETLSPTMQATIEGLNVVHSATRVFGSLYQAQNRRFSNTSVKVMDVDAGDRETVHPLVVTHPETGRKGLYVNQVYCQRIEGMSEKESEPLLSFLFAHATKPEFTCRVRWQEGDVLVWDNLCTQHYAVPDYAGKFRYLTRTTVGGVRPAR
**Q.** Which injury scores does the source give for B1 here?
**A.** The injury scores was at most 5%.
